Where no end group is shown, it is not given here.
How the values were obtained:
PSMA Fab [1] = biological target: T1, PSMA Fab (biotinylated (site not stated)); test: clonal phage ELISA on captured PSMA Fab pre-incubated with PSMA antigen as competitor, anti-M13-HRP detection;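 further: wells blocked with buffer plus PSMA antigen before phage addition, with blocking buffer alone as the no-competitor control, bound phage detected after washing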
T1 construct: Biotinylated PSMA Fab captured on neutravidin coated plates in the phage ELISA; also called anti-PSMA Fab; 006 PSMA Fab

PSMA Fab [2] = biological target: T1, PSMA Fab; test: clonal phage ELISA on biotinylated PSMA Fab captured on neutravidin plates, anti-M13-HRP detection;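 further: crude clonal phage supernatants added to wells preincubated with PSMA antigen or with blocking buffer only (no wash between), briefly incubated, then washed before detecting bound phage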
Protocol: (§1) Clonal phage were harvested as crude supernatants and screened via standard ELISAs. […] Prior to the addition of clonal phage. wells were incubated with blocking buffer and PSMA antigen or blocking buffer alone. Without washing or aspirating, clonal phage supernatants were then added to the wells and incubated for a short time. Wells were then washed followed by detection of bound phage using a horse radish conjugated anti-M13 antibody.

PSMA Fab (006 PSMA Fab) [3] = biological target: T2, PSMA Fab (006 PSMA Fab) (biotinylated (site not stated)); test: clonal phage ELISA on captured PSMA Fab pre-incubated with PSMA antigen as competitor;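 further: crude clonal phage supernatants added to wells without washing away the PSMA competitor, bound phage detected by HRP-conjugated anti-M13 antibody, reference wells received blocking buffer only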
T2 construct: In the clonal phage ELISA the biotinylated PSMA Fab was captured on neutravidin coated plates; also called Anti-PSMA Fab

PSMA Fab (006 PSMA Fab) [4] = biological target: T2, PSMA Fab (006 PSMA Fab); test: clonal phage ELISA on biotinylated PSMA Fab captured on neutravidin, anti-M13 HRP detection, no PSMA
Protocol: as §1

PSMA Fab [5] = biological target: T3, PSMA Fab; test: clonal phage ELISA; biotinylated PSMA Fab on neutravidin plate, blocking buffer alone; anti-M13 HRP detection;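 further: crude clonal phage supernatants added without washing to wells pretreated with blocking buffer with or without PSMA antigen, short incubation, then washed before detecting bound phage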
T3 construct: also called Anti-PSMA Fab; 006 PSMA Fab
Protocol: as §1

PSMA Fab [6] = biological target: T3, PSMA Fab; test: clonal phage ELISA; biotinylated PSMA Fab on neutravidin plate, pre-incubated with PSMA antigen as competitor; anti-M13 HRP detection
Protocol: as §1

## ILPQCVPSWMCEGF [Phage-3385]
PSMA Fab [1]
  Phage binding ELISA signal, Anti-PSMA Fab with PSMA antigen: 0.106
PSMA Fab [2]
  Phage binding ELISA signal, Anti-PSMA Fab: 1.81

## DHVMCKPKWMCEGF [Phage-3367]
PSMA Fab (006 PSMA Fab) [3]
  Phage binding ELISA signal, Anti-PSMA Fab with PSMA antigen: 0.0947
PSMA Fab (006 PSMA Fab) [4]
  Phage binding ELISA signal, Anti-PSMA Fab: 1.82

## DTWICKPEWMCMGF [Phage-3416]
PSMA Fab [5]
  Phage binding ELISA signal, Anti-PSMA Fab: 1.78
PSMA Fab [6]
  Phage binding ELISA signal, Anti-PSMA Fab with PSMA antigen: 0.0802

## IEAVCKPSWMCAGF (cysteine pairing not given here; also: fused to pIII of bacteriophage) [Phage-3391]
PSMA Fab [1]
  Phage binding ELISA signal, Anti-PSMA Fab with PSMA antigen: 0.0703
PSMA Fab [2]
  Phage binding ELISA signal, Anti-PSMA Fab: 1.8

## NGALCKPVWMCQGF [Phage-3383]
PSMA Fab [1]
  Phage binding ELISA signal, Anti-PSMA Fab with PSMA antigen: 0.0702
PSMA Fab [2]
  Phage binding ELISA signal, Anti-PSMA Fab: 1.81

## SVKVCKPAWMCAGF (cysteine pairing not given here; also: fused to pIII of bacteriophage) [Phage-3413]
PSMA Fab [5]
  Phage binding ELISA signal, Anti-PSMA Fab: 1.79
PSMA Fab [6]
  Phage binding ELISA signal, Anti-PSMA Fab with PSMA antigen: 0.102

## FTALCKPMWMCRGF [Phage-3386]
PSMA Fab [1]
  Phage binding ELISA signal, Anti-PSMA Fab with PSMA antigen: 0.0718
PSMA Fab [2]
  Phage binding ELISA signal, Anti-PSMA Fab: 1.81

## SLAQCVPEWMCFGF [Phage-3411]
PSMA Fab [5]
  Phage binding ELISA signal, Anti-PSMA Fab: 1.79
PSMA Fab [6]
  Phage binding ELISA signal, Anti-PSMA Fab with PSMA antigen: 0.113

## DTFMCRPSWMCNGF [Phage-3409]
PSMA Fab [5]
  Phage binding ELISA signal, Anti-PSMA Fab: 1.79
PSMA Fab [6]
  Phage binding ELISA signal, Anti-PSMA Fab with PSMA antigen: 0.072

## IGAMCEPKWMCFGF (cysteine pairing not given here; also: fused to pIII of bacteriophage) [Phage-3389]
PSMA Fab [1]
  Phage binding ELISA signal, Anti-PSMA Fab with PSMA antigen: 0.118
PSMA Fab [2]
  Phage binding ELISA signal, Anti-PSMA Fab: 1.8

## SEILCRPAWMCTGF [Phage-3407]
PSMA Fab [5]
  Phage binding ELISA signal, Anti-PSMA Fab: 1.79
PSMA Fab [6]
  Phage binding ELISA signal, Anti-PSMA Fab with PSMA antigen: 0.104

## VEPLCRPMWMCEGI [Phage-3410]
PSMA Fab [5]
  Phage binding ELISA signal, Anti-PSMA Fab: 1.79
PSMA Fab [6]
  Phage binding ELISA signal, Anti-PSMA Fab with PSMA antigen: 0.122

## QVPMCKPMWMCAGF (cysteine pairing not given here; also: fused to pIII of bacteriophage) [Phage-3379]
PSMA Fab [1]
  Phage binding ELISA signal, Anti-PSMA Fab with PSMA antigen: 0.0921
PSMA Fab [2]
  Phage binding ELISA signal, Anti-PSMA Fab: 1.81

## DFAMCRPAWMCGGF (cysteine pairing not given here; also: fused to pIII of bacteriophage) [Phage-3372]
PSMA Fab (006 PSMA Fab) [3]
  Phage binding ELISA signal, Anti-PSMA Fab with PSMA antigen: 0.0683
PSMA Fab (006 PSMA Fab) [4]
  Phage binding ELISA signal, Anti-PSMA Fab: 1.81

## VEPLCRPFWMCVGF [Phage-3382]
PSMA Fab [1]
  Phage binding ELISA signal, Anti-PSMA Fab with PSMA antigen: 0.127
PSMA Fab [2]
  Phage binding ELISA signal, Anti-PSMA Fab: 1.81

## QGTLCVPSWMCSGF [Phage-3390]
PSMA Fab [1]
  Phage binding ELISA signal, Anti-PSMA Fab with PSMA antigen: 0.0523
PSMA Fab [2]
  Phage binding ELISA signal, Anti-PSMA Fab: 1.8

## DVRLCRPSWMCSGF [Phage-3378]
PSMA Fab [1]
  Phage binding ELISA signal, Anti-PSMA Fab with PSMA antigen: 0.0682
PSMA Fab [2]
  Phage binding ELISA signal, Anti-PSMA Fab: 1.81

## FEMLCRPIWMCTGF [Phage-3365]
PSMA Fab (006 PSMA Fab) [3]
  Phage binding ELISA signal, Anti-PSMA Fab with PSMA antigen: 0.14
PSMA Fab (006 PSMA Fab) [4]
  Phage binding ELISA signal, Anti-PSMA Fab: 1.82

## VERACRPVWMCQGF [Phage-3417]
PSMA Fab [5]
  Phage binding ELISA signal, Anti-PSMA Fab: 1.78
PSMA Fab [6]
  Phage binding ELISA signal, Anti-PSMA Fab with PSMA antigen: 0.0907

## HDLRCVPEWMCYGL [Phage-3377]
PSMA Fab (006 PSMA Fab) [3]
  Phage binding ELISA signal, Anti-PSMA Fab with PSMA antigen: 0.0734
PSMA Fab (006 PSMA Fab) [4]
  Phage binding ELISA signal, Anti-PSMA Fab: 1.81

## MQMMCKPDWMCEGF [Phage-3388]
PSMA Fab [1]
  Phage binding ELISA signal, Anti-PSMA Fab with PSMA antigen: 0.0755
PSMA Fab [2]
  Phage binding ELISA signal, Anti-PSMA Fab: 1.8

## QLPMCVPRWMCDGW [Phage-3366]
PSMA Fab (006 PSMA Fab) [3]
  Phage binding ELISA signal, Anti-PSMA Fab with PSMA antigen: 0.129
PSMA Fab (006 PSMA Fab) [4]
  Phage binding ELISA signal, Anti-PSMA Fab: 1.82

## FSVRCVPEWMCAGF (cysteine pairing not given here; also: fused to pIII of bacteriophage) [Phage-3387]
PSMA Fab [1]
  Phage binding ELISA signal, Anti-PSMA Fab with PSMA antigen: 0.0701
PSMA Fab [2]
  Phage binding ELISA signal, Anti-PSMA Fab: 1.8

## METWCVPTWMCTGF [Phage-3415]
PSMA Fab [5]
  Phage binding ELISA signal, Anti-PSMA Fab: 1.79
PSMA Fab [6]
  Phage binding ELISA signal, Anti-PSMA Fab with PSMA antigen: 0.0748

## HTPICVPVWMCAGF (cysteine pairing not given here; also: fused to pIII of bacteriophage) [Phage-3369]
PSMA Fab (006 PSMA Fab) [3]
  Phage binding ELISA signal, Anti-PSMA Fab with PSMA antigen: 0.0746
PSMA Fab (006 PSMA Fab) [4]
  Phage binding ELISA signal, Anti-PSMA Fab: 1.82

## IAVMCKPEWMCVGF [Phage-3368]
PSMA Fab (006 PSMA Fab) [3]
  Phage binding ELISA signal, Anti-PSMA Fab with PSMA antigen: 0.0964
PSMA Fab (006 PSMA Fab) [4]
  Phage binding ELISA signal, Anti-PSMA Fab: 1.82

## LSIKCVPDWMCTGF [Phage-3370]
PSMA Fab (006 PSMA Fab) [3]
  Phage binding ELISA signal, Anti-PSMA Fab with PSMA antigen: 0.09
PSMA Fab (006 PSMA Fab) [4]
  Phage binding ELISA signal, Anti-PSMA Fab: 1.81

## DFVRCVPDWMCQGF [Phage-3414]
PSMA Fab [5]
  Phage binding ELISA signal, Anti-PSMA Fab: 1.79
PSMA Fab [6]
  Phage binding ELISA signal, Anti-PSMA Fab with PSMA antigen: 0.0627

## AQGVCIPQWMCDGF (cysteine pairing not given here; also: fused to pIII of bacteriophage) [Phage-3406]
PSMA Fab [5]
  Phage binding ELISA signal, Anti-PSMA Fab: 1.79
PSMA Fab [6]
  Phage binding ELISA signal, Anti-PSMA Fab with PSMA antigen: 0.0715

## EMRYCVPRWMCEGF [Phage-3381]
PSMA Fab [1]
  Phage binding ELISA signal, Anti-PSMA Fab with PSMA antigen: 0.095
PSMA Fab [2]
  Phage binding ELISA signal, Anti-PSMA Fab: 1.81

## AEVRCVPQWMCFGL [Phage-3380]
PSMA Fab [1]
  Phage binding ELISA signal, Anti-PSMA Fab with PSMA antigen: 0.0952
PSMA Fab [2]
  Phage binding ELISA signal, Anti-PSMA Fab: 1.81

## IMPTCVPQWMCNGF [Phage-3418]
PSMA Fab [5]
  Phage binding ELISA signal, Anti-PSMA Fab: 1.78
PSMA Fab [6]
  Phage binding ELISA signal, Anti-PSMA Fab with PSMA antigen: 0.093

## IDKMCVPSWMCWGF [Phage-3374]
PSMA Fab (006 PSMA Fab) [3]
  Phage binding ELISA signal, Anti-PSMA Fab with PSMA antigen: 0.0876
PSMA Fab (006 PSMA Fab) [4]
  Phage binding ELISA signal, Anti-PSMA Fab: 1.81

## ELVRCIPVWMCQGF [Phage-3412]
PSMA Fab [5]
  Phage binding ELISA signal, Anti-PSMA Fab: 1.79
PSMA Fab [6]
  Phage binding ELISA signal, Anti-PSMA Fab with PSMA antigen: 0.368

## QEIYCVPEWMCSWF [Phage-3375]
PSMA Fab (006 PSMA Fab) [3]
  Phage binding ELISA signal, Anti-PSMA Fab with PSMA antigen: 0.0642
PSMA Fab (006 PSMA Fab) [4]
  Phage binding ELISA signal, Anti-PSMA Fab: 1.81

## PHAICKPAWMCVGL [Phage-3371]
PSMA Fab (006 PSMA Fab) [3]
  Phage binding ELISA signal, Anti-PSMA Fab with PSMA antigen: 0.0913
PSMA Fab (006 PSMA Fab) [4]
  Phage binding ELISA signal, Anti-PSMA Fab: 1.81

## GDHYCKPDWMCSGF [Phage-3408]
PSMA Fab [5]
  Phage binding ELISA signal, Anti-PSMA Fab: 1.79
PSMA Fab [6]
  Phage binding ELISA signal, Anti-PSMA Fab with PSMA antigen: 0.071

## GHPICVPSWMCEGF [Phage-3373]
PSMA Fab (006 PSMA Fab) [3]
  Phage binding ELISA signal, Anti-PSMA Fab with PSMA antigen: 0.0862
PSMA Fab (006 PSMA Fab) [4]
  Phage binding ELISA signal, Anti-PSMA Fab: 1.81

## EYIRCVPSWMCLDL [Phage-3376]
PSMA Fab (006 PSMA Fab) [3]
  Phage binding ELISA signal, Anti-PSMA Fab with PSMA antigen: 0.0615
PSMA Fab (006 PSMA Fab) [4]
  Phage binding ELISA signal, Anti-PSMA Fab: 1.81

## LEVHCRPSWMCVGF [Phage-3384]
PSMA Fab [1]
  Phage binding ELISA signal, Anti-PSMA Fab with PSMA antigen: 0.062
PSMA Fab [2]
  Phage binding ELISA signal, Anti-PSMA Fab: 1.81

## MLPYCVPQWMCMGF [Phage-3419]
PSMA Fab [5]
  Phage binding ELISA signal, Anti-PSMA Fab: 1.78
PSMA Fab [6]
  Phage binding ELISA signal, Anti-PSMA Fab with PSMA antigen: 0.147

Source: patent US20260242478A1 (published 2026)
